What all share (type): cell-based, human
Experiment [1] relates to monocyte derived DC. Kind of experiment: Flow cytometric analysis of DC surface molecules. How it is done:
(§1) Monocyte derived DC were generated as previously described (Weigt et al. Immunobiol. 207, 223-233 (2003). Briefly, blood was centrifuged to remove platelets, diluted and layered over Ficoll-Paque (Amersham Pharmacia, Uppsala, Sweden). After density gradient centrifugation, PBMC were collected, and monocytes were enriched using the MACS system and anti-CD14 beads (Miltenyi Biotec, Bergisch Gladbach, Germany). The CD14 positive fraction (monocytes) was cultured in the serum-free medium X-VIVO 15 supplemented with 100 U/ml penicillin and […] streptomycin (all BioWhittaker, Verviers, Belgium). The CD14 negative fraction containing the lymphocytes was cryopreserved in 90% FCS (GIBCO, Eggenstein-Leopoldhafen, Germany) and 10% DMSO (SIGMA, Taufkirchen, Germany). On day 1 and day 5 after isolation, 800 U/m of recombinant GM-CSF and 500 U/ml of recombinant IL-4 (Strathmann Biotec, Hamburg, Germany) were added to the monocyte culture to induce DC.
(§2) On day 5 of the culture, DC were pulsed with affinity purified house dust mite allergen adjusted to a concentration of 100 ng/ml of DerP1 or with PBS as control. […] The respective optimal concentrations were experimentally determined using the highest expression of stimulatory cell surface molecules as read-out system. The substances were incubated on the cells for 48 hours.
For immunophenotyping, an aliquot of DC was harvested after 7 days of culture and washed in PBS supplemented with 0.5% FCS and 10 mM NaN3 (SIGMA, Taufkirchen, Germany). After 30-minute-incubation at 4° C. with one of the following combination of labeled murine mAbs (isotype control FITC/isotype control PE, anti-CD83 FITC, anti-CD86 FITC/anti-CD40 PE, anti-CD 80 FITC/anti-HLA-DR PE, anti-CD1a FITC/anti-CD14 PE (all BD Biosciences, Heidelberg, Germany)) cells were washed and analysed on a EPICS XL-MCL (Beckmann Coulter, Krefeld, Germany) flow cytometer. Data were processed with the Expo 32 cytometer software (Beckmann Coulter). The expression of the cell surface molecules was shown in 1 parameter Histograms (FIG. 2) or evaluated using the median of fluorescence intensity (MFI) after subtraction of the values of the isotype control (Tab. 1).

Experiment [2] concerns monocyte derived DC. Kind of experiment: Cytokines in DC culture supernatant (ELISA). Conditions: day 7 of culture. How it is done: as §1, §2
(§3) Cytokine concentrations were determined in DC culture supernatant collected on day 7 (TNF-α, IL-10, IL-12) and in the supernatant of the coculture of DC and autologous lymphocytes collected on day 10 (IFN-γ, IL-4). Duo-Set ELISA kits for the detection of IL-12p70, IL-10, TNF, IFN-γ, IL-4 and IL-5 were purchased (R&D Systems, Wiesbaden, Germany) and performed according to the manufacturers instructions.

Experiment [3] concerns autologous lymphocytes. Briefly: Cytokines in coculture of pretreated DC with autologous lymphocytes (ELISA). Conditions: for IFN-g concentration in coculture supernatant / IL-4 concentration in coculture supernatant: DerP1 pulsed DC, day 3 of coculture. How it is done: as §2, §3
(§4) A portion of DC was used for coculture experiments with autologous lymphocytes from day 7 to day 13. To remove free stimulants, DC were harvested and washed twice. The cells were titrated in fresh medium in fresh round-bottom microtiterplates. 1×10^5 vital cryopreserved autologous lymphocytes were added at ratios of DC to lymphocytes from 1:3 to 1:2187 in a final volume of 200 μl in serum-free XVIVO-15. No further stimulants were given.

Experiment [4] deals with autologous lymphocytes. Kind of experiment: Proliferation assay (3H-thymidine) in coculture of DC and autologous lymphocytes. As to conditions: DC of allergics, allergen pulsed, 3H-thymidine day 12 for 18 hours. How it is done:
as §4
The coculture was pulsed with 5 μCi/ml ^3H-thymidine (Amersham Buchler, Braunschweig, Germany) on day 12. After 18 hours, the cells were harvested on filtermats (Canberra-Packard, Dreieich, Germany). After drying, 20 μl of liquid scintillator (Can berra-Packard) were added and the plates were sealed. Counts per minute were determined on a Topcount Microplate Scintillation Counter (Can berra-Packard).

Where [5] appears, read: DC of allergics, 48 h treatment, DerP1 100 ng/ml, MALP-2 100 pg/ml, IFN-g 5000 U/ml, mean±SEM of 6 experiments.
Setting [6] is: allergic donors, DC:lymphocytes 1:3.
The mark [7] stands for this setting: allergic donors, pretreated DC:lymphocytes 1:3, mean±SEM of 6 experiments.

The record followed here is patent publication US8415152B2, “Therapeutical composition containing dentritic cells and use thereof” (Helmholtz-Zentrum für Infektionsforschung GmbH, priority 2003, dated 2013).

B1: DerP1: affinity purified major allergen of the house-dust mite Dermatophagoides pteronyssinus (protein, UniProt P08176 99-320, looked up)
Peptidase 1: TNACSINGNAPAEIDLRQMRTVTPIRMQGGCGSCWAFSGVAATESAYLAYRNQSLDLAEQELVDCASQHGCHGDTIPRGIEYIQHNGVVQESYYRYVAREQSCRRPNAQRFGISNYCQIYPPNVNKIREALAQTHSAIAVIIGIKDLDAFRHYDGRTIIQRDNGYQPNYHAVNIVGYSNAQGVDYWIVRNSWDTNWGDNGYGYFAANIDLMMIEEYPYVVIL
B1: in the experiment on monocyte derived DC [1] (setting [5]), the “CD1a median fluorescence intensity” value is listed as 265.2 +/− 106.8, the “CD 14 median fluorescence intensity” value is listed as 17.6 +/− 9.8, the “CD 40 median fluorescence intensity” value is 733 +/− 160.5 and the “CD 80 median fluorescence intensity” value was 47.2 +/− 18.9. For the same molecule, in the experiment with monocyte derived DC [1] (setting [5]), the “CD 83 median fluorescence intensity” value is listed as 47.3 +/− 9^, the “CD 86 median fluorescence intensity” value is listed as 159.8 +/− 29.3 and the “HLA-DR median fluorescence intensity” value is 426.9 +/− 131.9. Further, the “Surface expression of CD80, CD86, CD40, HLA-DR, CD83 on DC” value in the experiment with monocyte derived DC [1] (immature DC of allergics, 48 h incubation) is “no effect on the expression of the surface molecules”. Also, the “TNF production in DC culture supernatant” value with monocyte derived DC [2] is “low levels”. Also, in the experiment on monocyte derived DC [2] (compared to untreated DC), the “IL-10 production in DC culture supernatant” value is reported as “did not influence” and the “IL-12p70 production in DC culture supernatant” value was “did not influence”. In addition, in the experiment on autologous lymphocytes [3] (setting [6]), the “IFN-g in coculture supernatant” value is reported as “reduction of IFN-g” and the “IL-4 in coculture supernatant” value is “increase in IL-4”. Moreover, in the experiment with autologous lymphocytes [3] (setting [7]), the “IFN-γ production in coculture” value is 3.6 +/− 2.1 and the “IL-4 production in coculture” value is listed as 13.6 +/− 7.3. For the same molecule, in the experiment on autologous lymphocytes [3] (allergics, ±SEM), the “IFN-g concentration in coculture supernatant” value was 3.6 pg/mL and the “IL-4 concentration in coculture supernatant” value stood at 13.6 pg/m. In addition, the “IL-4 concentration in coculture supernatant” value with autologous lymphocytes [3] (healthy donors) was “below the detection limit”. Also, the “IFN-g concentration in coculture supernatant” value in the experiment on autologous lymphocytes [3] (non-allergics (healthy donors), ±SEM) is 8.7 pg/m. Also, in the experiment with autologous lymphocytes [4], the “Lymphocyte proliferation” value was “only a very weak effect on lymphocyte proliferation”.
